The record followed here is paper doi:10.1101/413294 (bioRxiv, 2018).

One data set addresses C3b (human, UniProt P01024). As to the kind of experiment: SPR.
The data set “SAXS” deals with the molecule itself. As to the kind of experiment: SAXS.

Chain of C3b (P01024 23-667, chain 1 of 2): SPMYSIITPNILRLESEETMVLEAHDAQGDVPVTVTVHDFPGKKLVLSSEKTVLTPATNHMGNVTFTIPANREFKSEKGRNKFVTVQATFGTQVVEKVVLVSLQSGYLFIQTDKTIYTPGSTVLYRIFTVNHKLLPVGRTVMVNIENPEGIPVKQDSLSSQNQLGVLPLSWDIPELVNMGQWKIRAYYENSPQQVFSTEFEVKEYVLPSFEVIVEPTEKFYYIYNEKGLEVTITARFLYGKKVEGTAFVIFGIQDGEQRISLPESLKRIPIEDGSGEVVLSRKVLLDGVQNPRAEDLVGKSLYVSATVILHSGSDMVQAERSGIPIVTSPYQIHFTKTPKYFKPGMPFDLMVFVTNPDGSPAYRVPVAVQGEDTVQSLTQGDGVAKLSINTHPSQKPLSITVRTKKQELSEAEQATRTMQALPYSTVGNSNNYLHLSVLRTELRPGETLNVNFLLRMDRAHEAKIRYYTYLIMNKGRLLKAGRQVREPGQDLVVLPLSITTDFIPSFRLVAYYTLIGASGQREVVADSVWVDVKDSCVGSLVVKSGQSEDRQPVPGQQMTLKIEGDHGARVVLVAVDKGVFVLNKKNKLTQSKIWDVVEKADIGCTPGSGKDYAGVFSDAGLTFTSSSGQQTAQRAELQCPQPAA
Chain of C3b (P01024 749-1663, chain 2 of 2): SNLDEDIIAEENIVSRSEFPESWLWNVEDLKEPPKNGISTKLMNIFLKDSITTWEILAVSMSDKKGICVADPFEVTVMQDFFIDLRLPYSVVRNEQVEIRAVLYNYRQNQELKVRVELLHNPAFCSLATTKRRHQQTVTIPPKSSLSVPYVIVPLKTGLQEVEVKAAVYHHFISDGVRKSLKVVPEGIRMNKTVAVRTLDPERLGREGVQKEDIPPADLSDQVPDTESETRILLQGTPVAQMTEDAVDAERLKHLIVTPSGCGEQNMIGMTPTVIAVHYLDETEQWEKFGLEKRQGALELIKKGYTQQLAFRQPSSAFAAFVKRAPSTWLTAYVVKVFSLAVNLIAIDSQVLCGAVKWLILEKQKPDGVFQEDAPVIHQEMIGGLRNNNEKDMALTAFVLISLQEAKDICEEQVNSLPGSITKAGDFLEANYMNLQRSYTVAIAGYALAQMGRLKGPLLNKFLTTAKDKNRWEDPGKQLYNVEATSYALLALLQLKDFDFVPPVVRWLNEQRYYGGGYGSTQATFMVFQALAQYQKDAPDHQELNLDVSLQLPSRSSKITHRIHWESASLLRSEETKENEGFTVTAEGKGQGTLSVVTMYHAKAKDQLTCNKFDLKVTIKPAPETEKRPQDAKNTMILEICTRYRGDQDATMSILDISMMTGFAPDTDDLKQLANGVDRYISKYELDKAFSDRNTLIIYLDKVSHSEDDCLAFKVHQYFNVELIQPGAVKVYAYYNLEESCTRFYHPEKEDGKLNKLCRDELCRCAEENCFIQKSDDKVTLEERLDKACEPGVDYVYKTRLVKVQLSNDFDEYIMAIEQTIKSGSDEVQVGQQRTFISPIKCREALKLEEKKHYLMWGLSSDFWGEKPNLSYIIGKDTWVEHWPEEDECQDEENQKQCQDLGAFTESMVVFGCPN

B1: FH_(19-20), the C-terminal part of factor H (SCR 19-20), recombinant (domain or fragment)
chain: KDSTGKCGPPPPIDNGDITSFPLSVYAPASSVEYQCQNLYQLEGNKRITCRNGQWSEPPKCLHPCVISREIMENYNIALRWTAKQKLYSRTGESVEFVCKRGYRLSSRSHTLRTTCWDGKLEYPTCAKR
On to B1, for which the binding result with C3b is given as “binds”.

B2: factor H-related protein 1 (FHR-1), recombinant (natural protein)
chain: EATFCDFPKINHGILYDEEKYKPFSQVPTGEVFYYSCEYNFVSPSKSFWTRITCTEEGWSPTPKCLRLCFFPFVENGHSESSGQTHLEGDTVQIICNTGYRLQNNENNISCVERGWSTPPKCRSTDTSCVNPPTVQNAHILSRQMSKYPSGERVRYECRSPYEMFGDEEVMCLNGNWTEPPQCKDSTGKCGPPPPIDNGDITSFPLSVYAPASSVEYQCQNLYQLEGNKRITCRNGQWSEPPKCLHPCVISREIMENYNIALRWTAKQKLYLRTGESAEFVCKRGYRLSSRSHTLRTTCWDGKLEYPTCAKR
In the case of B2, in “SAXS”, the “stoichiometry N” value turned out to be 2.

B3: Factor H (FH), plasma purified (natural protein)
chain: EDCNELPPRRNTEILTGSWSDQTYPEGTQAIYKCRPGYRSLGNVIMVCRKGEWVALNPLRKCQKRPCGHPGDTPFGTFTLTGGNVFEYGVKAVYTCNEGYQLLGEINYRECDTDGWTNDIPICEVVKCLPVTAPENGKIVSSAMEPDREYHFGQAVRFVCNSGYKIEGDEEMHCSDDGFWSKEKPKCVEISCKSPDVINGSPISQKIIYKENERFQYKCNMGYEYSERGDAVCTESGWRPLPSCEEKSCDNPYIPNGDYSPLRIKHRTGDEITYQCRNGFYPATRGNTAKCTSTGWIPAPRCTLKPCDYPDIKHGGLYHENMRRPYFPVAVGKYYSYYCDEHFETPSGSYWDHIHCTQDGWSPAVPCLRKCYFPYLENGYNQNYGRKFVQGKSIDVACHPGYALPKAQTTVTCMENGWSPTPRCIRVKTCSKSSIDIENGFISESQYTYALKEKAKYQCKLGYVTADGETSGSITCGKDGWSAQPTCIKSCDIPVFMNARTKNDFTWFKLNDTLDYECHDGYESNTGSTTGSIVCGYNGWSDLPICYERECELPKIDVHLVPDRKKDQYKVGEVLKFSCKPGFTIVGPNSVQCYHFGLSPDLPICKEQVQSCGPPPELLNGNVKEKTKEEYGHSEVVEYYCNPRFLMKGPNKIQCVDGEWTTLPVCIVEESTCGDIPELEHGWAQLSSPPYYYGDSVEFNCSESFTMIGHRSITCIHGVWTQLPQCVAIDKLKKCKSSNLIILEEHLKNKKEFDHNSNIRYRCRGKEGWIHTVCINGRWDPEVNCSMAQIQLCPPPPQIPNSHNMTTTLNYRDGEKVSVLCQENYLIQEGEEITCKDGRWQSIPLCVEKIPCSQPPQIEHGTINSSRSSQESYAHGTKLSYTCEGGFRISEENETTCYMGKWSSPPQCEGLPCKSPPEISHGVVAHMSDSYQYGEEVTYKCFEGFGIDGPAIAKCLGEKWSHPPSCIKTDCLSLPSFENAIPMGEKKDVYKAGEQVTYTCATYYKMDGASNVTCINSRWTGRPTCRDTSCVNPPTVQNAYIVSRQMSKYPSGERVRYQCRSPYEMFGDEEVMCLNGNWTEPPQCKDSTGKCGPPPPIDNGDITSFPLSVYAPASSVEYQCQNLYQLEGNKRITCRNGQWSEPPKCLHPCVISREIMENYNIALRWTAKQKLYSRTGESVEFVCKRGYRLSSRSHTLRTTCWDGKLEYPTCAKR
As to B3, in the data set with C3b, the binding result is “binds”.

B4: factor H-related protein 2 (FHR-2), recombinant (natural protein)
chain: EAMFCDFPKINHGILYDEEKYKPFSQVPTGEVFYYSCEYNFVSPSKSFWTRITCAEEGWSPTPKCLRLCFFPFVENGHSESSGQTHLEGDTVQIICNTGYRLQNNENNISCVERGWSTPPKCRSTISAEKCGPPPPIDNGDITSFLLSVYAPGSSVEYQCQNLYQLEGNNQITCRNGQWSEPPKCLDPCVISQEIMEKYNIKLKWTNQQKLYSRTGDIVEFVCKSGYHPTKSHSFRAMCQNGKLVYPSCEEK
Take B4: the binding result with C3b is “binds”.

B5: factor H-related protein 5 (FHR-5), recombinant (natural protein)
chain: EGTLCDFPKIHHGFLYDEEDYNPFSQVPTGEVFYYSCEYNFVSPSKSFWTRITCTEEGWSPTPKCLRMCSFPFVKNGHSESSGLIHLEGDTVQIICNTGYSLQNNEKNISCVERGWSTPPICSFTKGECHVPILEANVDAQPKKESYKVGDVLKFSCRKNLIRVGSDSVQCYQFGWSPNFPTCKGQVRSCGPPPQLSNGEVKEIRKEEYGHNEVVEYDCNPNFIINGPKKIQCVDGEWTTLPTCVEQVKTCGYIPELEYGYVQPSVPPYQHGVSVEVNCRNEYAMIGNNMITCINGIWTELPMCVATHQLKRCKIAGVNIKTLLKLSGKEFNHNSRIRYRCSDIFRYRHSVCINGKWNPEVDCTEKREQFCPPPPQIPNAQNMTTTVNYQDGEKVAVLCKENYLLPEAKEIVCKDGRWQSLPRCVESTAYCGPPPSINNGDTTSFPLSVYPPGSTVTYRCQSFYKLQGSVTVTCRNKQWSEPPRCLDPCVVSEENMNKNNIQLKWRNDGKLYAKTGDAVEFQCKFPHKAMISSPPFRAICQEGKFEYPICE
Consider B5, for which, in the data set with C3b, the binding result is “binds”.
